Consider one molecule from US20180230213A1 (AVEO PHARMACEUTICALS, published 2018).

The target of test [1] is T1, recombinant human Notch3 extracellular domain (containing EGF like domains 1-11) Fc fusion protein (human, UniProt Q9UM47 40-467).
T1 construct: domain: EGF like domains 1-11; also called rhNotch3-Fc; rhNotch3
T1 sequence (looked up): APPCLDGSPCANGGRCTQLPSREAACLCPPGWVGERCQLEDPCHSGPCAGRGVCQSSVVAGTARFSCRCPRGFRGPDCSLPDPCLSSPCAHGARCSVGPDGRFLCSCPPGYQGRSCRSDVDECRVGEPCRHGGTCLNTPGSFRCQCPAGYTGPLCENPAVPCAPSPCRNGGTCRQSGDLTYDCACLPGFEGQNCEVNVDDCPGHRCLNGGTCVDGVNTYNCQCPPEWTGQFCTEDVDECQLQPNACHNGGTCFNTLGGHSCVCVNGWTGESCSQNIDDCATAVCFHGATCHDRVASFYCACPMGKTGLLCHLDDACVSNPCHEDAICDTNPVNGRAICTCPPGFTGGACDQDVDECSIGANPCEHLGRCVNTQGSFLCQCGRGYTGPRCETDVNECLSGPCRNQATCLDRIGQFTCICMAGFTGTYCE
Description: SPR Biacore T100, 4F11 captured by anti-mouse IgG, rhNotch3-Fc analyte, 37 C. As to the method: (§1) The binding affinity and kinetics of binding of antibody 4F11 to recombinant human Notch3 extracellular domain (containing EGF like domains 1-11) Fc fusion protein (rhNotch3-Fc (R&D Systems, Inc., Minneapolis, Minn.)) were measured by surface plasmon resonance using a Biacore® T100 instrument (GE Healthcare, Piscataway, N.J.).
(§2) Rabbit anti-mouse IgGs (GE Healthcare) were immobilized on carboxymethylated dextran CM4 sensor chips (GE Healthcare) by amine coupling, according to a standard protocol. Analyses were performed at 25° C. and 37° C. using PBS containing 0.05% surfactant P20 as running buffer. The antibody was captured in individual flow cells at a flow rate of 10 μl/minute. Injection time was varied for each antibody to yield an Rmax between 30 and 60 resonance units (RU). Buffer or rhNotch3-Fc diluted in running buffer was injected sequentially over a reference surface (no antibody captured) and the active surface (antibody to be tested) for 240 seconds at 60 μl/minute. The dissociation phase was monitored for up to 1500 seconds. The surface was then regenerated with two 60-second injections of 10 mM Glycine-HCl, pH 2.25, at a flow rate of 30 μl/minute. The rhNotch3-Fc concentration range tested was 100 nM to 3.125 nM (2 fold dilution).
(§3) Kinetic parameters were determined using the kinetic function of the BIAevaluation software (GE Healthcare) with double reference subtraction. Kinetic parameters for the antibody, kₐ (association rate constant), kd (dissociation rate constant) and KD (equilibrium dissociation constant) were determined.

For test [2], the target named is T2, human Notch3 on the cell surface (human, UniProt Q9UM47 40-2321).
T2 construct: whole, on cells; the cells carry the full length protein; also called cell surface human Notch3; hNotch3
The test is described as follows: FACS on RL-952 cells (human Notch3), 4 C, one site binding fit. The method, then:
(§4) Binding to cell surface human Notch3 by the antibody 4F11 was measured at 4° C., using Fluorescence Activated Cell Sorting (FACS). CHO N3 (Flp-In-CHO cells (Invitrogen) stably transfected with human Notch3), HCC2429 cells, and RL-952 cells expressing human Notch3 were washed once with PBS containing calcium chloride and magnesium chloride (Invitrogen) and harvested using cell dissociation buffer (Invitrogen). Cells were washed a second time with PBS and resuspended in FACS buffer (PBS with 0.5% BSA (Sigma-Aldrich)) for a final cell concentration of 250,000 cells per well into a 96-well v-bottom plate. Purified antibodies were diluted in FACS buffer over a concentration range of 100 nM to 0.1 nM. Cells were then incubated at 4° C. with […] of antibody for one hour, washed with FACS buffer twice, and resuspended in […] of goat-anti mouse PE-conjugated antibody (Jackson Immuno Research). Cells were incubated at 4° C. for 30 minutes in the dark, washed once with FACS buffer, and then analyzed using a Beckman Coulter Cytomics FC 500 instrument. The geometric mean of the florescent intensity was then calculated for each antibody concentration. These values were then entered into Prism software (GraphPad, La Jolla, Calif.) and used to generate a binding curve by plotting geometric mean versus antibody concentration. […]

For test [3], the target named is T1, recombinant human Notch3 extracellular …. The test is described as follows: SPR Biacore T100, 4F11 captured by anti-mouse IgG, rhNotch3-Fc analyte, 25 C. The method, then:
as §1, §2, §3

For test [4], the target named is T3, human Notch1 expressed on the surface of CHO cells (human, UniProt P46531 19-2555).
T3 construct: whole, on cells
T3 sequence (P46531 19-2555): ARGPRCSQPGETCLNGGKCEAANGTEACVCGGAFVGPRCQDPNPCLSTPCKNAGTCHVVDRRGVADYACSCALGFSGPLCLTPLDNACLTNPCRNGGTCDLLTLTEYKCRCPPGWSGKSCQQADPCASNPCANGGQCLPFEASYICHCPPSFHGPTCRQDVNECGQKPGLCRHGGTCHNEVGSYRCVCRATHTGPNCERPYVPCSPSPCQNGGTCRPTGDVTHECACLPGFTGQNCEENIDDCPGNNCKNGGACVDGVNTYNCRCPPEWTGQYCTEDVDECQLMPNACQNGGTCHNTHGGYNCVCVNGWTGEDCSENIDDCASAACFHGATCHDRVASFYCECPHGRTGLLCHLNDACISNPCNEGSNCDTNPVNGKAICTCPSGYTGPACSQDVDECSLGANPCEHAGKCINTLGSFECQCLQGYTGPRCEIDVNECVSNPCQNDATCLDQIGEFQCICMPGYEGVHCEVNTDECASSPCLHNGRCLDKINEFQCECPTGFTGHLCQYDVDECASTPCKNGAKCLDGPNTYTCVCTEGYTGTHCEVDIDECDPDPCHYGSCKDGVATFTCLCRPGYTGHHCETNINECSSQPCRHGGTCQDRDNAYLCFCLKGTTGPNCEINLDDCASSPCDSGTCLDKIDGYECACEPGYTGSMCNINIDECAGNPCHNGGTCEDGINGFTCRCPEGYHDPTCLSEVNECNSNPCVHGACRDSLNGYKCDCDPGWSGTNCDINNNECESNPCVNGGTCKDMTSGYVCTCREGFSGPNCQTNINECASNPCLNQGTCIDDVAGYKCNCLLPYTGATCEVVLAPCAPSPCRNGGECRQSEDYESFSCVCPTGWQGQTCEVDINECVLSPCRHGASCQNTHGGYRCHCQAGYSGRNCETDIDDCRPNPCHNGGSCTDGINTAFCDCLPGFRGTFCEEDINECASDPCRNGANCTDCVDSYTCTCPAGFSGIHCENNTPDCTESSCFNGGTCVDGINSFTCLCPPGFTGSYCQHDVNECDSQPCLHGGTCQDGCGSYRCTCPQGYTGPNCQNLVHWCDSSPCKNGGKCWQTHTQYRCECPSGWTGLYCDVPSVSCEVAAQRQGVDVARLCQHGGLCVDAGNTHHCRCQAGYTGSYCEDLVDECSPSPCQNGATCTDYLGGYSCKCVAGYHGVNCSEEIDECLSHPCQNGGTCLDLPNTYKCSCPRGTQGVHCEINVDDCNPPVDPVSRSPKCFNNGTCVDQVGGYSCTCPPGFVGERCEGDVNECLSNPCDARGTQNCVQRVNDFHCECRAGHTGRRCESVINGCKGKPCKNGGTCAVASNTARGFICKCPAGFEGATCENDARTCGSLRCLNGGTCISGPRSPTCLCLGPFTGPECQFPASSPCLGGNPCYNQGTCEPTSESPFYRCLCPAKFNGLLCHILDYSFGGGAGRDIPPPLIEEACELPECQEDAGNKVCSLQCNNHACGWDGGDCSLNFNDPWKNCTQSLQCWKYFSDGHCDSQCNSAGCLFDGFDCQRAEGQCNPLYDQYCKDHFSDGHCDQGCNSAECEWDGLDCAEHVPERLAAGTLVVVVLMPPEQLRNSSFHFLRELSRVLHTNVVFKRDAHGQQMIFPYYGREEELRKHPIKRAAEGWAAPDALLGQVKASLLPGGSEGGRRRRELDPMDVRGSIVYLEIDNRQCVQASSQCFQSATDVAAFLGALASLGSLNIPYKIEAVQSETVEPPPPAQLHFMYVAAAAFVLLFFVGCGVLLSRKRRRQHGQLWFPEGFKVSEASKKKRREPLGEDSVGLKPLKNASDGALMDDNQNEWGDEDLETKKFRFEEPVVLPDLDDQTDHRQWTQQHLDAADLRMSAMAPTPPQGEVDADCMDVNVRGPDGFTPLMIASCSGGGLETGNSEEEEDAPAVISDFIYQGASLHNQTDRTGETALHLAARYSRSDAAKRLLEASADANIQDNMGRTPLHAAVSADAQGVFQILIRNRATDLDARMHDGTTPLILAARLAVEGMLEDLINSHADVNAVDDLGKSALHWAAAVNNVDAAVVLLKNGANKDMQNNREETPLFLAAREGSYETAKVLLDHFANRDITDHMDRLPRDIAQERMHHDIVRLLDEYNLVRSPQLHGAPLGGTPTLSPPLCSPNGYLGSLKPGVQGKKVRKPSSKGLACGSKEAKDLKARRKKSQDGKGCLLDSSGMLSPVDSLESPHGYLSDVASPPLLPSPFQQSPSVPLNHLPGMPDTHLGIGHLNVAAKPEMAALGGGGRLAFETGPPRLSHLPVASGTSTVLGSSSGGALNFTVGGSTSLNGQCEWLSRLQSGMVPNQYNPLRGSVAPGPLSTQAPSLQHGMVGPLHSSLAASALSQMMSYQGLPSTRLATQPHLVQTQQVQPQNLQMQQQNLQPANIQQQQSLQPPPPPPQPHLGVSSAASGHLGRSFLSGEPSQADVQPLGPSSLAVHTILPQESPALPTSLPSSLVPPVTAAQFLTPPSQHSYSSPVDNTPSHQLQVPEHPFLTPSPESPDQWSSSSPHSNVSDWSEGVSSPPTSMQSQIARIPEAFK
The test is described as follows: electrochemiluminescence (Meso Scale Discovery) on transfected CHO cells. The method, then: (§5) To determine specificity of binding to cell surface Notch proteins, antibody 4F11 was tested for binding to human Notch1, human Notch2, human Notch3 and human Notch4 expressed on the surface of CHO cells using electrochemiluminescence (Meso Scale Discovery). A CHO line lacking any human Notch protein was also produced for use as a negative control. Cells were grown under standard conditions (37° C., F12+10% FBS). For binding studies, cells were washed in PBS containing calcium and magnesium, and removed from the plate by treatment with Cell Dissociation Buffer (Life Technologies) for ten minutes at 37° C.
(§6) Cells were seeded at a density of 30,000 cells per well, in hybridoma media, instandard 96-well binding plates (Meso Scale Discovery, Cat. No. L15XA-6). Cells were incubated for one hour at 37° C. Antibodies or control IgG were added at 5 μg/ml, in 50 μl hybridoma media, and incubated for one hour at 37° C. The plates were washed twice with PBS containing 3% BSA. Binding of the antibodies to cell surface was detected using 2 μg/ml of MSD anti-mouse IgG secondary antibody (Meso Scale Discovery, Cat. No. R32AC-1) for one hour at 4° C. Plates were washed twice with PBS containing 3% BSA, and 150 μl of read buffer (Meso Scale Discovery Cat. No. R92TC-1) was added. The plates were analyzed on a Sector Imager 2400 instrument (Meso Scale Discovery).

The target in test [5] is T4, human Notch4 expressed on the surface of CHO cells (human, UniProt Q99466 24-2003).
T4 construct: whole, on cells
The description is as above. The method, then:
as §5, §6

In test [6] the target is T5, human Notch2 expressed on the surface of CHO cells (human, UniProt Q04721 26-2471).
T5 construct: whole, on cells
T5 sequence (Q04721 26-2471): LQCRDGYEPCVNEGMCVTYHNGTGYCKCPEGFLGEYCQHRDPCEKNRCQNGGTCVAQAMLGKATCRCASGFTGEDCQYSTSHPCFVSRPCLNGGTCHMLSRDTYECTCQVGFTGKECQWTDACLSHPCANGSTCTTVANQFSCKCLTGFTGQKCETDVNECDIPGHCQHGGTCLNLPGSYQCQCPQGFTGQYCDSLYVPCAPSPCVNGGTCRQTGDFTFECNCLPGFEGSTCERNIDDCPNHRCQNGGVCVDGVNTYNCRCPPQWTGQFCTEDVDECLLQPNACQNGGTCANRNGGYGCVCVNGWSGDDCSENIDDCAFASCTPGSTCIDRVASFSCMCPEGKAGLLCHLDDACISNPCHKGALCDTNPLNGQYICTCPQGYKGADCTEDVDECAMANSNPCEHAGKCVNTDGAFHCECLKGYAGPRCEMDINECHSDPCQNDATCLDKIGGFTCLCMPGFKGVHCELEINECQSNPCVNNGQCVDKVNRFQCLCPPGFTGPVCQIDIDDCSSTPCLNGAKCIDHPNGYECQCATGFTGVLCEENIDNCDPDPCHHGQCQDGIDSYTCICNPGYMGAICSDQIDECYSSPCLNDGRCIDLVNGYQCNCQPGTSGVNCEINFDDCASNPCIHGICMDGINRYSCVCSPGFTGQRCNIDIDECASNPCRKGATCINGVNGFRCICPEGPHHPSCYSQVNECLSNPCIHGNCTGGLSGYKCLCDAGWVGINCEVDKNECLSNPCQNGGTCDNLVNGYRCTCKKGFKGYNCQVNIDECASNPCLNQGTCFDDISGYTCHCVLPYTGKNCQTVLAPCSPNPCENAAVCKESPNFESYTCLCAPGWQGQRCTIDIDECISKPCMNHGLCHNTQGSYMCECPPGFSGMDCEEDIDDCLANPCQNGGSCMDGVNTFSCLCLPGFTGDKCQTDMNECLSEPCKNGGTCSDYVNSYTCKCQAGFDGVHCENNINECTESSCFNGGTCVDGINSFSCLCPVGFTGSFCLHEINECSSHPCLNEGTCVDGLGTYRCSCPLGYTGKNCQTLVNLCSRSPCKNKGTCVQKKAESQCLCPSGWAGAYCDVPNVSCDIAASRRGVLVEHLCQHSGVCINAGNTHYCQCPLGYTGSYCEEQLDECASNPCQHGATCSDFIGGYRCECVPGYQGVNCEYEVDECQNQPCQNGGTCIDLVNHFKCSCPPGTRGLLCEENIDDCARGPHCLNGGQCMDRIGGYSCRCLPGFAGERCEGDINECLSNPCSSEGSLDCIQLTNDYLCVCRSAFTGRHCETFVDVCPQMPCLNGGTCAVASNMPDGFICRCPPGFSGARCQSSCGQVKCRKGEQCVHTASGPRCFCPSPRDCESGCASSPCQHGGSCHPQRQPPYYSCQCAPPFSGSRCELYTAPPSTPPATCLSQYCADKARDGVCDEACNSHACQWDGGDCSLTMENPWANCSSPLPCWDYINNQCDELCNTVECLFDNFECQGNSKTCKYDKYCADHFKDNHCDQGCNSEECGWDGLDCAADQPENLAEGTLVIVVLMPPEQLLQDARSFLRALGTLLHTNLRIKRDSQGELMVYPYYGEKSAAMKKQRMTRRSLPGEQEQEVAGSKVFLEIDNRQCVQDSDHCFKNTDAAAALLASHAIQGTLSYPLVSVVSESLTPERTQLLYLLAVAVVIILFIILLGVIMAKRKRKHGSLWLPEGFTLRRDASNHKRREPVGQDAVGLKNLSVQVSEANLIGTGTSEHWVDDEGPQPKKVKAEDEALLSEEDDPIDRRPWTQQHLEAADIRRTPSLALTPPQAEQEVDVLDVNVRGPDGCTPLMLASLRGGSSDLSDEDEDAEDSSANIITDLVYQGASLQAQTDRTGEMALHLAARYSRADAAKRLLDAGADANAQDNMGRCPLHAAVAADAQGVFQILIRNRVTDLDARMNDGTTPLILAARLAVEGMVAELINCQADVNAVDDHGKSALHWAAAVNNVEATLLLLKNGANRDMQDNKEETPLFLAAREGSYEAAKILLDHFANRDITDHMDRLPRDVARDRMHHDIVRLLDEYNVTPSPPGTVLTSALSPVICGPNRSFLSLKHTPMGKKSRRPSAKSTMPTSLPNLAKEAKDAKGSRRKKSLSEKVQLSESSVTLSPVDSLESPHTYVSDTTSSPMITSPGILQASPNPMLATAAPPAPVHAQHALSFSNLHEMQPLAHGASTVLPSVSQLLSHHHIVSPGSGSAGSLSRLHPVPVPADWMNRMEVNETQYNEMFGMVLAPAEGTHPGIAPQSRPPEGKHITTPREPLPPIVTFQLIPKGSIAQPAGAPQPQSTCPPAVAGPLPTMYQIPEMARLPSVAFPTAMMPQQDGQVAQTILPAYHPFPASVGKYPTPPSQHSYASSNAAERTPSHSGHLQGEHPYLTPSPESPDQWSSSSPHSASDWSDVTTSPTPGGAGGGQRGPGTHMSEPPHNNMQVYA
The description is as above. The method, then: as §5, §6

For test [7], the target named is T2, human Notch3 on the cell surface. Description: FACS on CHO N3 cells (human Notch3), 4 C, one site binding fit. The method, then:
as §4

B1: antibody 4F11 (murine monoclonal anti-human Notch3) (antibody, mouse IgG1, kappa, V domains shown)
VH: EVQLVESGGGLVKPGGSLKLSCAASGFAFSSYDMSWVRQTPEKRLEWVAYISRGGGSTYYPDTVKGRFTISRDNAKNTLYLQMSSLKSEDTAMYYCGRHATTAYWYFDVWGAGTTVTVSS
VL: DVVMTQTPLSLPVSLGDQASISCRSSQSLVHTNGNTYLHWYLQKPGQSPKLLIYKVSNRFSGVPDRFSGSGSGTDFTLKISRVEAEDLGVYFCSQSTHVPWTFGGGTKLEIKR
notes: Mouse IgG1 kappa purified from hybridoma; also called mu4F11; murine 4F11
For the molecule B1, the Kd came out at 0.78 nM in test [1], 0.963 nM in test [2], 0.823 nM in test [3] and 0.36 nM in test [7]. Moreover, the values for the dissociation rate constant (koff) in test [1] and in test [3] were 5.7e-05 s⁻¹ and 4.8e-05 s⁻¹, respectively. For the same molecule, the kon in test [1] is 75000 M⁻¹ s⁻¹; in test [3] it was 70000 M⁻¹ s⁻¹. Besides, the binding result in test [4], in test [5] and in test [6] was “no binding (tested: 5 µg/ml)” each time.
